Measured values as given in patent publication US11130803B2, “Isoform-selective TGFβ1 inhibitors and use thereof” (Scholar Rock, Inc., priority 2018, dated 2021).
Where a chain is given by its changes, count along the chain named.

B1: Ab22: monoclonal antibody; VH SEQ ID NO: 130, VL SEQ ID NO: 15 (antibody, V domains shown)
VH: EVQLVESGGGLVQPGGSLRLSCAASGFTFGSFSMNWVRQAPGKGLEWVSYIHSDASTIYYADSVKGRFTISRDNAKNSLYLQMNSLRAEDTAVYYCARGVLDYGDMLDPWGQGTLVTVSS
VL: DIQMTQSPSSLSASVGDRVTITCQASQDITNYLNWYQQKPGKAPKLLIYDASNLETGVPSRFSGSGSGTDFTFTISSLQPEDIATYYCQQADNHPPWTFGGGTKVEIK
B2: Ab31: monoclonal antibody; VH SEQ ID NO: 139, VL SEQ ID NO: 15 (antibody, V domains shown)
VH: B1 VH with G30S, N35D, H52S, S53P, S78T, G99A
VL: B1 VL
B3: Ab30: monoclonal antibody; VH SEQ ID NO: 138, VL SEQ ID NO: 15 (antibody, V domains shown)
VH: B1 VH with G30S, N35D, H52S, S53P, V100T
VL: B1 VL
B4: Ab26: monoclonal antibody; VH SEQ ID NO: 134, VL SEQ ID NO: 15 (antibody, V domains shown)
VH: B1 VH with G30S, N35D, H52S, S53P, S78T
VL: B1 VL
B5: Ab29: monoclonal antibody; VH SEQ ID NO: 137, VL SEQ ID NO: 15 (antibody, V domains shown)
VH: B1 VH with G16R, G30S, S33A, H52S, S53P, D62G, A97V, G99A
VL: B1 VL
B6: Ab24: monoclonal antibody; VH SEQ ID NO: 132, VL SEQ ID NO: 15 (antibody, V domains shown)
VH: B1 VH with G16R, G30S, S33A, N35Y, H52S, S53P
VL: B1 VL
B7: Ab33: monoclonal antibody; VH SEQ ID NO: 141, VL SEQ ID NO: 15 (antibody, V domains shown)
VH: B1 VH with G30S, H52S, S53P, D54S, S56D, S78T, R98H
VL: B1 VL
B8: Ab32: monoclonal antibody; VH SEQ ID NO: 140, VL SEQ ID NO: 15 (antibody, V domains shown)
VH: B1 VH with G30S, H52S, S53P, D54S, S56D, S78T, L101W, Y103M
VL: B1 VL
B9: Ab11: monoclonal antibody; VH SEQ ID NO: 239, VL SEQ ID NO: 241 (antibody, V domains shown)
VH: EVQLLESGGGLVQPGGSLRLSCAASGFTFRNYAMSWVRQAPGKGLEWVSSISGSGGATYYADSVKGRFTISRDNSKNTLYLQMNSLRAEDTAVYYCARVSSGHWDFDYWGQGTLVTVSS
VL: DIQLTQSPSSLSASVGDRVTITCRASQSISSYLNWYQQKPGKAPKLLIYAASNLQSGVPSRFSGSGSGTDFTLTISSLQPEDFATYYCQQTYTVPLTFGGGTKVEIK
B10: Ab20: monoclonal antibody; VH SEQ ID NO: 251, VL SEQ ID NO: 241 (antibody, V domains shown)
VH: B9 VH with R30S, N31A, S35T, S50A, A57V, F106Y
VL: B9 VL
B11: Ab19: monoclonal antibody; VH SEQ ID NO: 250, VL SEQ ID NO: 241 (antibody, V domains shown)
VH: QVQLVESGGGVVQPGRSLRLSCAASGFTFSSFAMTWVRQAPGKGLEWVSAISGSGAATYFADSVKGRFTISRDNSKNTLYLQMNSLRAEDTAVYYCARVSSGHWDFDEWGQGTLVTVSS
VL: B9 VL
B12: Ab12: monoclonal antibody; VH SEQ ID NO: 237, VL SEQ ID NO: 241 (antibody, V domains shown)
VH: B11 VH with S31D, F32Y, T35V, A56F, A57T, F60Y, E108Y
VL: B9 VL

Target: T1, hLTBP3-proTGFβ1 (Homo sapiens, UniProt P01137)
T1 construct: made in house; host or cells: Expi293F cells, transient co-transfection
T1 sequence (P01137 30-390): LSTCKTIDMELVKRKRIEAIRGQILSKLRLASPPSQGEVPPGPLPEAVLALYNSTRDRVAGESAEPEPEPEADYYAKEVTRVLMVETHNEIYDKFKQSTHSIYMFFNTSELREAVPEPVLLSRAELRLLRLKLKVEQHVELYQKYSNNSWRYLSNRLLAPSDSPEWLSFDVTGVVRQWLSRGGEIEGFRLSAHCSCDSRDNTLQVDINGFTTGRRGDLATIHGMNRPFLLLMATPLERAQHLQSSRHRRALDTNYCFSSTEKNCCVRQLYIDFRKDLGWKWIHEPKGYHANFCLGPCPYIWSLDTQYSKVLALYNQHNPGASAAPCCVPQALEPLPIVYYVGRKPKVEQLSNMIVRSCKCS
T1 sequence (Q9NS15 866-1039 partner limits assumed): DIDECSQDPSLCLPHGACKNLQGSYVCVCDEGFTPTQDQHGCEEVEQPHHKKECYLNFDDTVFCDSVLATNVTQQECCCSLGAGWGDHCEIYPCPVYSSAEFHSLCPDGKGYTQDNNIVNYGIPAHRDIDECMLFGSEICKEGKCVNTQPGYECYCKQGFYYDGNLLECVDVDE
Assay: MSD-SET solution equilibrium titration binding
Conditions: MSD-SET at equilibrium, hIgG4, human complex; in M
Excerpt: (§1) Solution Equilibrium Titration (SET): The SET is an assay whereby binding between two molecules (such as an antigen and an antibody that binds the antigen) can be measured at equilibrium in a solution. For example, Meso-Scale Discovery (“MSD”)-based SET, or MSD-SET, is a useful mode of determining dissociation constants for particularly high-affinity protein-protein interactions at equilibrium, such as picomolar-affinity antibodies binding to their antigens (see, for example: Ducata et al. (2015) J Biomolecular Screening 20(10): 1256-1267). The SET-based assays are particularly useful for determining KD values of antibodies with sub-nanomolar (e.g., picomolar) affinities.
(§2) In view of this, it is contemplated that assays that measure binding affinities of such antibodies at equilibrium may more accurately represent the mode of target engagement in vivo. Thus, MSD-SET-based binding assays (or other suitable assays) may be performed, as exemplified in Table 9 below.
(§3) Solution equilibrium titration (“SET”) is an assay whereby binding between two molecules (such as an antigen and an antibody that binds the antigen) can be measured at equilibrium in a solution. For example, Meso-Scale Discovery (“MSD”)-based SET, or MSD-SET, is a useful mode of determining dissociation constants for particularly high-affinity protein-protein interactions at equilibrium (see, for example: Ducata et al. (2015) J Biomolecular Screening 20(10): 1256-1267). The SET-based assays are particularly useful for determining KD values of antibodies with sub-nanomolar (e.g., picomolar) affinities.
(§4) For solution equilibrium titration-based binding assays, protein complexes that comprise one of the presenting molecules such as those shown above may be employed as antigen (presenting molecule-TGFβ1 complex, or an LLC). Test antibodies are allowed to form antigen-antibody complex in solution. Antigen-antibody reaction mixtures are incubated to allow an equilibrium to be reached; the amount of the antigen-antibody complex present in the assay reactions can be measured by suitable means well known in the art. As compared to BLI-based assays, SET-based assays are less affected by on/off rates of the antigen-antibody complex, allowing sensitive detection of very high affinity interactions.

(C) hLTBP3, Matrix-associated proTGFβ1 KD	Molecule
3.30E−11	B1
1.40E−11	B2
2.60E−11	B3
2.30E−11	B4
1.10E−11	B5
2.10E−11	B6
7.00E−12	B7
2.60E−11	B8
1.20E−09	B9
1.80E−10	B10
2.70E−09	B11
6.60E−10	B12

Target: T2, hLRRC33-proTGFβ1 (Homo sapiens, UniProt P01137)
T2 construct: made in house
T2 sequence (P01137 30-390): as the sequence (P01137 30-390) above
T2 sequence (Q86YC3 19-650 partner limits assumed): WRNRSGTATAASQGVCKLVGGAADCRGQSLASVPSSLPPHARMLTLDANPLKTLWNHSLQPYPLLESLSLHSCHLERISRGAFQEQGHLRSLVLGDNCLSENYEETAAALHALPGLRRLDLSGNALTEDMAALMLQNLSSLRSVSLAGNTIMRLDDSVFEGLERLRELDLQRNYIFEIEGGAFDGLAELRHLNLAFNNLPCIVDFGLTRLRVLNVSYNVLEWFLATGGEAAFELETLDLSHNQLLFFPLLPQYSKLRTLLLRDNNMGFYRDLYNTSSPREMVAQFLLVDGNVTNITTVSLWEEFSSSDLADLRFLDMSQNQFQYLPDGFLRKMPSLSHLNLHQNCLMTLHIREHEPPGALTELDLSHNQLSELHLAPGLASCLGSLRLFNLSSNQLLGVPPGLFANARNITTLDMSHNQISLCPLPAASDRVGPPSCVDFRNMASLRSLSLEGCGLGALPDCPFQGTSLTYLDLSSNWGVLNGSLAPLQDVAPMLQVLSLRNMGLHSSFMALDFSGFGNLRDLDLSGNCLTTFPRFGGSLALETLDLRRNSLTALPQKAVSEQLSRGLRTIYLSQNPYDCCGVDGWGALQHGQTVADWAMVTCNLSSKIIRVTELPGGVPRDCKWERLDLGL
Assay: MSD-SET solution equilibrium titration binding
Conditions: MSD-SET at equilibrium, hIgG4, human complex; in M
Excerpt: as §1, §2, §3, §4

(F) hLRRC33, Cell-associated proTGFβ1 KD	Molecule
2.00E−10	B1
9.60E−11	B2
1.40E−10	B3
1.30E−10	B4
4.30E−11	B5
1.80E−10	B6
4.60E−11	B7
8.70E−11	B8
6.30E−09	B9
1.60E−09	B10
5.70E−09	B11
3.20E−09	B12

Target: T3, hGARP-proTGFβ1 (Homo sapiens, UniProt P01137)
T3 construct: made in house
T3 sequence (P01137 30-390): as the sequence (P01137 30-390) above
T3 sequence (Q14392 20-627 partner limits assumed): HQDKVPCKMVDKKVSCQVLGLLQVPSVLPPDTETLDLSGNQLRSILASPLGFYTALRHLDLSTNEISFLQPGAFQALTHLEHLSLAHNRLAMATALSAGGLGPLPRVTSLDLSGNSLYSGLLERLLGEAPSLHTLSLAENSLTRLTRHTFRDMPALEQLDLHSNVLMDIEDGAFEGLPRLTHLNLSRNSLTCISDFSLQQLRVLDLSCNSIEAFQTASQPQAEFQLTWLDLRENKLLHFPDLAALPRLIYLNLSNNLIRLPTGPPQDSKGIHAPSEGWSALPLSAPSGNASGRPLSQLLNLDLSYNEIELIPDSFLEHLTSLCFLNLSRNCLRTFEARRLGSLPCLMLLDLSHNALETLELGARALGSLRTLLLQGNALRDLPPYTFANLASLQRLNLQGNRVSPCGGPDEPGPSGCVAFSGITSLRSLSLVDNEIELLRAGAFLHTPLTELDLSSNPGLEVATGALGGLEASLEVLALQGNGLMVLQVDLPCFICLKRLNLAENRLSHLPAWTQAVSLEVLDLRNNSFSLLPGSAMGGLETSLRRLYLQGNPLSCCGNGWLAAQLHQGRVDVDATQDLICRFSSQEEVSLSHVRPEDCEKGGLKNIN
Assay: MSD-SET solution equilibrium titration binding
Conditions: MSD-SET at equilibrium, hIgG4, human complex; in M
Excerpt: as §1, §2, §3, §4

(E) hGARP, Cell-associated proTGFβ1 KD	Molecule
2.70E−11	B1
1.90E−11	B2
2.20E−11	B3
1.40E−11	B4
5.50E−12	B5
1.90E−11	B6
7.80E−12	B7
1.50E−11	B8
3.00E−09	B9
1.10E−09	B10
3.80E−09	B11
1.70E−09	B12

Target: T4, hLTBP1-proTGFβ1 (Homo sapiens, UniProt P01137)
T4 construct: made in house; host or cells: Expi293F cells, transient co-transfection
T4 sequence (P01137 30-390): as the sequence (P01137 30-390) above
T4 sequence (Q14766 873-1507 partner): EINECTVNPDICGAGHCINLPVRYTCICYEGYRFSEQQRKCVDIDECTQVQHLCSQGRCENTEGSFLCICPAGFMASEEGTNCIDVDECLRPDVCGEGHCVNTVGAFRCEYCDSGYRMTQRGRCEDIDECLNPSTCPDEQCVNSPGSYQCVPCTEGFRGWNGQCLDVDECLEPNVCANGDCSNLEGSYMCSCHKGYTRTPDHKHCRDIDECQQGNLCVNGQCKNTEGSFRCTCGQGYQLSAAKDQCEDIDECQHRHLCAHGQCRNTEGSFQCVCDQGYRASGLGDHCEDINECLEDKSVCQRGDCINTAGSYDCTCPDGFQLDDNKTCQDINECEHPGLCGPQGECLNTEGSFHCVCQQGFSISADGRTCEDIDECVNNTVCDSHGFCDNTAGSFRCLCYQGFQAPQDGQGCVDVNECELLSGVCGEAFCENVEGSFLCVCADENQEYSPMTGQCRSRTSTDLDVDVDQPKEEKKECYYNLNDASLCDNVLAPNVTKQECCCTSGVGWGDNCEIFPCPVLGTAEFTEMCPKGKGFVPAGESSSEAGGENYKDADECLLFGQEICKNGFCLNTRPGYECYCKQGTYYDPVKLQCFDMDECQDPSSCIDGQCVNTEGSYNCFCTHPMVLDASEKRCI
Assay: MSD-SET solution equilibrium titration binding
Conditions: MSD-SET at equilibrium, hIgG4, human complex; in M
Excerpt: as §1, §2, §3, §4

(B) hLTBP1, Matrix-associated proTGFβ1 KD	Molecule
5.00E−11	B1
1.90E−11	B2
3.10E−11	B3
2.80E−11	B4
1.20E−11	B5
2.40E−11	B6
1.10E−11	B7
3.70E−11	B8
1.20E−09	B9
2.20E−10	B10
2.10E−09	B11
7.80E−10	B12

Test system: hLTBP1-/hLTBP3-proTGFβ1 vs hGARP-/hLRRC33-proTGFβ1 complexes
Assay: Solution equilibrium titration: relative affinity (bias) LTBP complexes vs cell-associated complexes
Type: binding, human
Conditions: not given
Excerpt: Context-biased: As used herein, “context-biased antibodies” refer to a type of conformational antibodies that binds an antigen with differential affinities when the antigen is associated with (i.e., bound to or attached to) an interacting protein or a fragment thereof. Thus, a context-biased antibody that specifically binds an epitope within proTGFβ1 may bind LTBP1-proTGFβ1, LTBP3-proTGFβ1, GARP-proTGFβ1 and LRRC33-proTGFβ1 with different affinities. […] Relative affinities of [matrix-associated complexes]: [cell-associated complexes] may be obtained by taking average KD values of the former, taking average KD values of the latter, and calculating the ratio of the two, as exemplified herein.
In a yet further aspect, the present disclosure provides context-biased TGFβ1 inhibitors. The context-biased antibodies include LTBP-biased antibodies with higher affinities for ECM-associated LLCs than for cell-associated LLCs wherein the affinities are measured at equilibrium.

Molecule	matrix/LTBP-bias in relative affinities between at least one matrix-associated and at least one cell-associated complex
B9	more than five-fold
B10	more than five-fold

Same assay, conditions: MSD-SET, average KD of (B) and (C); read-out: (D) ECM AVRG

Molecule	Kd
B1	0.042 nM
B2	0.017 nM
B3	0.029 nM
B4	0.026 nM
B6	0.023 nM
B7	0.009 nM
B8	0.032 nM
B10	0.2 nM
B11	2.83 nM
B12	0.72 nM

Same assay, conditions: MSD-SET, average KD of (E) and (F); read-out: (G) Cell AVRG

Molecule	Kd
B1	0.114 nM
B2	0.058 nM
B3	0.081 nM
B4	0.072 nM
B5	0.024 nM
B6	0.1 nM
B7	0.027 nM
B8	0.051 nM
B9	4.65 nM
B11	4.75 nM
B12	2.45 nM

Same assay, conditions: MSD-SET, ratio of average KD cell-associated / matrix-associated

Molecule	(H) G/D (fold bias)
B1	2.71 fold
B2	3.41 fold
B3	2.80 fold
B4	2.77 fold
B5	2.00 fold
B6	4.35 fold
B7	3.00 fold
B8	1.60 fold
B9	3.87 fold
B10	6.75 fold
B11	1.68 fold
B12	3.40 fold

Same assay, conditions: solution equilibrium titration

Molecule	average affinity for human LTBP1-/LTBP3-proTGFβ1 relative to human GARP-/LRRC33-proTGFβ1 complexes (LTBP-biased)
B10	proTGFβ1 and LTBP3-proTGFβ1 complexes is at least five-fold
